The text below walks through data of patent US20240092914A1 (NEW PARADIGM BIOSCIENCES USA, published 2024).

B1: NPB-303_A (antibody, V domains shown)
VH: EVQLVESGGGLVKPGGSLRLSCAASGFTFSTMSWVRQAPGKRLEWVASISSGGSTYYPDSVKGRFTISRDNAKNSLYLQMNSLRAEDTAVYYCARPSYEGYSSWFAYWGQGTLVTVSS
VL: EIVLTQSPATLSLSPGERATLSCKASQSVDYDGDGFMNWYQQKPGQAPRLLIYTASNLESGVPARFSGSGSGTDFTLTISSLEPEDFAVYYCQQSNEDPWTFGGGTKVEIK
notes: whole antibody captured by anti-human Fc
B2: NPB-303_D (antibody, V domains shown)
VH: EVQLVESGGGLVKPGGSLRLSCAASGFTFSTMSWVRQAPGKRLEWVASISSGGSTYYPDSVKGRFTISRDNAKNSLYLQMNSLRAEDTAVYYCARPSYDGYSSWFAYWGQGTLVTVSS
VL: EIVLTQSPATLSLSPGERATLSCKASQSVDYEGEGFMNWYQQKPGQAPRLLIYTASNLESGVPARFSGSGSGTDFTLTISSLEPEDFAVYYCQQSNEDPWTFGGGTKVEIK
notes: as for B1
B3: NPB-303_A.G (antibody, V domains shown)
VH: EVQLVESGGGLVKPGGSLRLSCAASGFTFSTMSWVRQAPGKRLEWVASISSGGSTYYPDSVKGRFTISRDNAKNSLYLQMNSLRAEDTAVYYCARPSYEGYSSWFAYWGQGTLVTVSS
VL: EIVLTQSPATLSLSPGERATLSCKASQSVDYDAEGFMNWYQQKPGQAPRLLIYTASNLESGVPARFSGSGSGTDFTLTISSLEPEDFAVYYCQQSNEDPWTFGGGTKVEIK
notes: as for B1
B4: NPB-303_B.E (antibody, V domains shown)
VH: EVQLVESGGGLVKPGGSLRLSCAASGFTFSTMSWVRQAPGKRLEWVASISSGGSTYYPDSVKGRFTISRDNAKNSLYLQMNSLRAEDTAVYYCARPSYDAYSSWFAYWGQGTLVTVSS
VL: EIVLTQSPATLSLSPGERATLSCKASQSVDYDADAFMNWYQQKPGQAPRLLIYTASNLESGVPARFSGSGSGTDFTLTISSLEPEDFAVYYCQQSNEDPWTFGGGTKVEIK
notes: as for B1
B5: NPB-303_F (antibody, V domains shown)
VH: EVQLVESGGGLVKPGGSLRLSCAASGFTFSTMSWVRQAPGKRLEWVASISSGGSTYYPDSVKGRFTISRDNAKNSLYLQMNSLRAEDTAVYYCARPSYDGYSSWFAYWGQGTLVTVSS
VL: EIVLTQSPATLSLSPGERATLSCKASQSVDYEGDAFMNWYQQKPGQAPRLLIYTASNLESGVPARFSGSGSGTDFTLTISSLEPEDFAVYYCQQSNEDPWTFGGGTKVEIK
notes: as for B1
B6: NPB-303_A.E (antibody, V domains shown)
VH: EVQLVESGGGLVKPGGSLRLSCAASGFTFSTMSWVRQAPGKRLEWVASISSGGSTYYPDSVKGRFTISRDNAKNSLYLQMNSLRAEDTAVYYCARPSYEGYSSWFAYWGQGTLVTVSS
VL: EIVLTQSPATLSLSPGERATLSCKASQSVDYDADAFMNWYQQKPGQAPRLLIYTASNLESGVPARFSGSGSGTDFTLTISSLEPEDFAVYYCQQSNEDPWTFGGGTKVEIK
notes: as for B1
B7: NPB-303_C.F (antibody, V domains shown)
VH: EVQLVESGGGLVKPGGSLRLSCAASGFTFSTMSWVRQAPGKRLEWVASISSGGSTYYPDSVKGRFTISRDNAKNSLYLQMNSLRAEDTAVYYCARPSYSGYSSWFAYWGQGTLVTVSS
VL: EIVLTQSPATLSLSPGERATLSCKASQSVDYEGDAFMNWYQQKPGQAPRLLIYTASNLESGVPARFSGSGSGTDFTLTISSLEPEDFAVYYCQQSNEDPWTFGGGTKVEIK
notes: as for B1
B8: NPB-303_B.H (antibody, V domains shown)
VH: EVQLVESGGGLVKPGGSLRLSCAASGFTFSTMSWVRQAPGKRLEWVASISSGGSTYYPDSVKGRFTISRDNAKNSLYLQMNSLRAEDTAVYYCARPSYDAYSSWFAYWGQGTLVTVSS
VL: EIVLTQSPATLSLSPGERATLSCKASQSVDYSGSGFMNWYQQKPGQAPRLLIYTASNLESGVPARFSGSGSGTDFTLTISSLEPEDFAVYYCQQSNEDPWTFGGGTKVEIK
notes: as for B1
B9: NPB-303_C.E (antibody, V domains shown)
VH: EVQLVESGGGLVKPGGSLRLSCAASGFTFSTMSWVRQAPGKRLEWVASISSGGSTYYPDSVKGRFTISRDNAKNSLYLQMNSLRAEDTAVYYCARPSYSGYSSWFAYWGQGTLVTVSS
VL: EIVLTQSPATLSLSPGERATLSCKASQSVDYDADAFMNWYQQKPGQAPRLLIYTASNLESGVPARFSGSGSGTDFTLTISSLEPEDFAVYYCQQSNEDPWTFGGGTKVEIK
notes: as for B1
B10: NPB-303_B (antibody, V domains shown)
VH: EVQLVESGGGLVKPGGSLRLSCAASGFTFSTMSWVRQAPGKRLEWVASISSGGSTYYPDSVKGRFTISRDNAKNSLYLQMNSLRAEDTAVYYCARPSYDAYSSWFAYWGQGTLVTVSS
VL: EIVLTQSPATLSLSPGERATLSCKASQSVDYDGDGFMNWYQQKPGQAPRLLIYTASNLESGVPARFSGSGSGTDFTLTISSLEPEDFAVYYCQQSNEDPWTFGGGTKVEIK
notes: as for B1
B11: NPB-303_G (antibody, V domains shown)
VH: EVQLVESGGGLVKPGGSLRLSCAASGFTFSTMSWVRQAPGKRLEWVASISSGGSTYYPDSVKGRFTISRDNAKNSLYLQMNSLRAEDTAVYYCARPSYDGYSSWFAYWGQGTLVTVSS
VL: EIVLTQSPATLSLSPGERATLSCKASQSVDYDAEGFMNWYQQKPGQAPRLLIYTASNLESGVPARFSGSGSGTDFTLTISSLEPEDFAVYYCQQSNEDPWTFGGGTKVEIK
notes: as for B1
B12: NPB-303_C.H (antibody, V domains shown)
VH: EVQLVESGGGLVKPGGSLRLSCAASGFTFSTMSWVRQAPGKRLEWVASISSGGSTYYPDSVKGRFTISRDNAKNSLYLQMNSLRAEDTAVYYCARPSYSGYSSWFAYWGQGTLVTVSS
VL: EIVLTQSPATLSLSPGERATLSCKASQSVDYSGSGFMNWYQQKPGQAPRLLIYTASNLESGVPARFSGSGSGTDFTLTISSLEPEDFAVYYCQQSNEDPWTFGGGTKVEIK
notes: as for B1
B13: NPB-303_B.F (antibody, V domains shown)
VH: EVQLVESGGGLVKPGGSLRLSCAASGFTFSTMSWVRQAPGKRLEWVASISSGGSTYYPDSVKGRFTISRDNAKNSLYLQMNSLRAEDTAVYYCARPSYDAYSSWFAYWGQGTLVTVSS
VL: EIVLTQSPATLSLSPGERATLSCKASQSVDYEGDAFMNWYQQKPGQAPRLLIYTASNLESGVPARFSGSGSGTDFTLTISSLEPEDFAVYYCQQSNEDPWTFGGGTKVEIK
notes: as for B1
B14: NPB-303_B.G (antibody, V domains shown)
VH: EVQLVESGGGLVKPGGSLRLSCAASGFTFSTMSWVRQAPGKRLEWVASISSGGSTYYPDSVKGRFTISRDNAKNSLYLQMNSLRAEDTAVYYCARPSYDAYSSWFAYWGQGTLVTVSS
VL: EIVLTQSPATLSLSPGERATLSCKASQSVDYDAEGFMNWYQQKPGQAPRLLIYTASNLESGVPARFSGSGSGTDFTLTISSLEPEDFAVYYCQQSNEDPWTFGGGTKVEIK
notes: as for B1
B15: NPB-303_A.H (antibody, V domains shown)
VH: EVQLVESGGGLVKPGGSLRLSCAASGFTFSTMSWVRQAPGKRLEWVASISSGGSTYYPDSVKGRFTISRDNAKNSLYLQMNSLRAEDTAVYYCARPSYEGYSSWFAYWGQGTLVTVSS
VL: EIVLTQSPATLSLSPGERATLSCKASQSVDYSGSGFMNWYQQKPGQAPRLLIYTASNLESGVPARFSGSGSGTDFTLTISSLEPEDFAVYYCQQSNEDPWTFGGGTKVEIK
notes: as for B1
B16: NPB-303_A.F (antibody, V domains shown)
VH: EVQLVESGGGLVKPGGSLRLSCAASGFTFSTMSWVRQAPGKRLEWVASISSGGSTYYPDSVKGRFTISRDNAKNSLYLQMNSLRAEDTAVYYCARPSYEGYSSWFAYWGQGTLVTVSS
VL: EIVLTQSPATLSLSPGERATLSCKASQSVDYEGDAFMNWYQQKPGQAPRLLIYTASNLESGVPARFSGSGSGTDFTLTISSLEPEDFAVYYCQQSNEDPWTFGGGTKVEIK
notes: as for B1
B17: NPB-303_C (antibody, V domains shown)
VH: EVQLVESGGGLVKPGGSLRLSCAASGFTFSTMSWVRQAPGKRLEWVASISSGGSTYYPDSVKGRFTISRDNAKNSLYLQMNSLRAEDTAVYYCARPSYSGYSSWFAYWGQGTLVTVSS
VL: EIVLTQSPATLSLSPGERATLSCKASQSVDYDGDGFMNWYQQKPGQAPRLLIYTASNLESGVPARFSGSGSGTDFTLTISSLEPEDFAVYYCQQSNEDPWTFGGGTKVEIK
notes: as for B1

For this assay, the target named is T1, recombinant human BDCA2 extracellular domain (UniProt Q8WTT0, residues 45-213) (human, UniProt Q8WTT0 45-213).
T1 construct: range 45-213; also called recombinant BDCA2 proteins; BDCA2 proteins
T1 sequence (looked up): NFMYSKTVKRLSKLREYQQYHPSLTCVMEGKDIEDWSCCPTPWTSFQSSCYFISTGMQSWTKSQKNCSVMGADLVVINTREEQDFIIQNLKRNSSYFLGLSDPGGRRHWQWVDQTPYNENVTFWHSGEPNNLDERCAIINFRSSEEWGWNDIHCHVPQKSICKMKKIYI
Description: SPR (Biacore), antibody captured on anti-human Fc chip, recombinant BDCA2 flowed over; small-scale batch. The procedure: BDCA2 antibody binding kinetics were measured using a Biacore surface plasmon resonance (SPR) instrument (GE Life Sciences). Briefly, anti-BDCA2 antibodies were captured on an anti-human Fc chip. The recombinant BDCA2 proteins were then flowed over the captured antibodies over a range of concentrations, at a rate of 50 μL/minute. The data was analyzed to determine kinetic constants using the BIAevaluation software package (GE Life Sciences). The sensorgrams of SPR based affinity testing for all 24 antibodies are shown in FIG. 55, and the biophysical characteristics of all 24 antibodies are summarized in Table 5.
A general note: Surface plasmon resonance follows binding to a sensor surface in real time, without labels.
Broadly, the Kd is a measure of binding affinity in units of concentration. The term koff denotes the first-order rate constant of dissociation. Usually kon stands for a measure of how fast the partners come together. With B1, the dissociation constant (Kd) worked out at 1.01 nM, the koff stood at 0.000145 s⁻¹ and the kon came to 144000 M⁻¹ s⁻¹.

For B2, the Kd is 1.25 nM, the koff was determined as 0.000144 s⁻¹ and the kon was found to be 115000 M⁻¹ s⁻¹.

As to B3, the dissociation constant (Kd) turned out to be 0.998 nM, the koff came out at 0.000142 s⁻¹ and the on-rate (kon) was found to be 142000 M⁻¹ s⁻¹.

B4: the Kd came to 4.77 nM, the off-rate (koff) was determined as 0.000409 s⁻¹ and the kon amounted to 85600 M⁻¹ s⁻¹.

Take B5: the Kd was 1.74 nM, the koff was 0.000187 s⁻¹ and the kon worked out at 107000 M⁻¹ s⁻¹.

As for B6, the dissociation constant Kd was determined as 1.49 nM, the koff stood at 0.000183 s⁻¹ and the on-rate (kon) turned out to be 123000 M⁻¹ s⁻¹.

Take B7: the Kd came out at 1.77 nM, the koff came to 0.000195 s⁻¹ and the association rate constant (kon) came out at 110000 M⁻¹ s⁻¹.

As to B8, the Kd was 3.47 nM, the koff was found to be 0.000272 s⁻¹ and the on-rate constant (kon) is 78500 M⁻¹ s⁻¹.

Consider B9, for which the Kd worked out at 1.89 nM, the koff was found to be 0.000237 s⁻¹ and the kon came to 125000 M⁻¹ s⁻¹.

On to B10, for which the Kd amounted to 2.06 nM, the off-rate constant (koff) is 0.000193 s⁻¹ and the kon was 93900 M⁻¹ s⁻¹.

On to B11, for which the Kd was 1.31 nM, the koff amounted to 0.000166 s⁻¹ and the kon worked out at 126000 M⁻¹ s⁻¹.

As for B12, the Kd is 2.02 nM, the dissociation rate constant (koff) came to 0.000197 s⁻¹ and the kon was found to be 97400 M⁻¹ s⁻¹.

Regarding B13, the Kd is 3.44 nM, the koff amounted to 0.000232 s⁻¹ and the kon worked out at 67600 M⁻¹ s⁻¹.

Turning to B14, the Kd stood at 2.63 nM, the koff was found to be 0.000286 s⁻¹ and the kon is 109000 M⁻¹ s⁻¹.

With B15, the equilibrium dissociation constant (Kd) was 1.49 nM, the off-rate (koff) was 0.000159 s⁻¹ and the on-rate constant (kon) turned out to be 107000 M⁻¹ s⁻¹.

On to B16, for which the Kd is 1.41 nM, the koff amounted to 0.000164 s⁻¹ and the kon was determined as 116000 M⁻¹ s⁻¹.

Consider B17, for which the equilibrium dissociation constant (Kd) was found to be 1.2 nM, the koff came out at 0.000165 s⁻¹ and the on-rate constant (kon) was 138000 M⁻¹ s⁻¹.
